Reference: PMC3220277 (Biochemistry, 2011)

Key:
Experiment in all cases: fluorescence polarisation
C81S S100A4 = C81S S100A4 (human, UniProt P26447 1-101, C81S)
wild-type human S100A4 = wild-type human S100A4 (human, UniProt P26447 1-101)
C81A S100A4 = C81A S100A4 (human, UniProt P26447 1-101, C81A)
C3R/C86S S100A4 = C3R/C86S S100A4 (human, UniProt P26447 1-101, C3R | C86S)
C3R/C86S S100A4, sequence (P26447 whole entry C3R/C86S, one chain of several): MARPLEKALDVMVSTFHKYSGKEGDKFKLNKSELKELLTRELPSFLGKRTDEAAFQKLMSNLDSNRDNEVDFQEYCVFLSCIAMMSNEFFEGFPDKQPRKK

C81A S100A4, sequence (P26447 whole entry C81A, one chain of several): as the sequence (P26447 whole entry C3R/C86S, one chain of several) above, with R3C, C81A, S86C counted along it
wild-type human S100A4, sequence (P26447 whole entry, one chain of several): as the sequence (P26447 whole entry C3R/C86S, one chain of several) above, with R3C, S86C counted along it
C81S S100A4, sequence (P26447 whole entry C81S, one chain of several): as the sequence (P26447 whole entry C3R/C86S, one chain of several) above, with R3C, C81S, S86C counted along it

- Kd (C81S S100A4): 128 ± 15.7 µM
- Kd (wild-type human S100A4): 2.3 ± 0.3 µM
- Kd (C81A S100A4): 46.6 ± 3.2 µM
- Kd (C3R/C86S S100A4): 1.4 ± 0.1 µM
B1: FITC-Ahx-DAMNREVSSLKNKLRR-OH peptide (FITC-MIIA^1908−1923) (peptide)
peptide: DAMNREVSSLKNKLRR
HELM: PEPTIDE1{[O=C1OC2(c3ccc(O)cc3Oc3cc(O)ccc32)c2ccc(NC(=S)[*:2])cc21].[O=C(CCCCCN[*:1])[*:2]].D.A.M.N.R.E.V.S.S.L.K.N.K.L.R.R}$$$$V2.0
SMILES: CSCC[C@H](NC(=O)[C@H](C)NC(=O)[C@H](CC(=O)O)NC(=O)CCCCCNC(=S)Nc1ccc2c(c1)C(=O)OC21c2ccc(O)cc2Oc2cc(O)ccc21)C(=O)N[C@@H](CC(N)=O)C(=O)N[C@@H](CCCNC(=N)N)C(=O)N[C@@H](CCC(=O)O)C(=O)N[C@H](C(=O)N[C@@H](CO)C(=O)N[C@@H](CO)C(=O)N[C@@H](CC(C)C)C(=O)N[C@@H](CCCCN)C(=O)N[C@@H](CC(N)=O)C(=O)N[C@@H](CCCCN)C(=O)N[C@@H](CC(C)C)C(=O)N[C@@H](CCCNC(=N)N)C(=O)N[C@@H](CCCNC(=N)N)C(=O)O)C(C)C
